Experimental data published in patent publication US20150203575A1 (Genentech, published 2015).
Values belong to the binder of their own block, whether it stands above or below them.

What was measured:
MAG expressed on cells [1] = biological target: T1, MAG expressed on cells (human, UniProt P20916 20-626); assay: cDNA expression library screen with PILRα-AP supernatant on COS7 transfectants; positive clones further analysed by FACS
T1 construct: Clone of the Origene human cDNA library; also called Myelin associated glycoprotein; SIGLEC4A
T1 sequence: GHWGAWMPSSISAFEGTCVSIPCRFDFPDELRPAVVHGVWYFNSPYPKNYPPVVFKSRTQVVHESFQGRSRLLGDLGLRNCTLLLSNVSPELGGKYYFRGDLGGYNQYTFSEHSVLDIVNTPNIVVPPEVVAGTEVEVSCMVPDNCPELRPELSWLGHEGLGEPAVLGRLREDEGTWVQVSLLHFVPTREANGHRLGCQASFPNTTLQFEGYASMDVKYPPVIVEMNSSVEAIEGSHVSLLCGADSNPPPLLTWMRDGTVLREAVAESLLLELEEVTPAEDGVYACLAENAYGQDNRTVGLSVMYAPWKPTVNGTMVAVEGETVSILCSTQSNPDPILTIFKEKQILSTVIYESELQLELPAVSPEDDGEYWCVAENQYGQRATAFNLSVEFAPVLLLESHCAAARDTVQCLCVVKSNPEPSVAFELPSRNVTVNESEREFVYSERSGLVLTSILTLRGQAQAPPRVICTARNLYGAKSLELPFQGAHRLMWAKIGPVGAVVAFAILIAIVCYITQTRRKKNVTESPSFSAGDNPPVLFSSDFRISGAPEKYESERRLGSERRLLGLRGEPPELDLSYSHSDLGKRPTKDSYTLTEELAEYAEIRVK
Method: (§1) COS7 cells were plated in a 24-well format and transfected with 10 ul of Origene library DNA (Origene, human DNA library containing 20 k genes) per well with Fugene 6 Reagent. Two days later, cells were incubated with human or mouse PILRα-Ap supernatants for 45 min at room temperature (RT). Then cells were fixed with 4% PFA for 15 min at RT. After removing fixation buffer, cells were blocked with 100 mM Glycine in HBS (20 mM Hepes, PH7.2, 150 mM NaCl) for 15 min at RT. Cells were then rinsed and incubated in HBS for 90 min at 65° C. HBS was removed and Western Blue Substrate (Promega) was added and color was developed for 30 min to 1 hr.

[2] = biological target: T2, LRRTM4 expressed on cells (human, UniProt Q86VH4 31-590); assay: as above
T2 construct: Clone of the Origene human cDNA library; also called Leucine rich repeat transmembrane neuronal 4
Method: as §1

WDR31 expressed on cells = biological target: T3, WDR31 expressed on cells (human, UniProt Q8NA23 1-367); assay: as above
T3 construct: Clone of the Origene human cDNA library; also called WD repeat domain 31
Method: as §1

PTPRN expressed on cells = biological target: T4, PTPRN expressed on cells (human, UniProt Q16849 35-979); assay: as above
T4 construct: Clone of the Origene human cDNA library; also called Protein tyrosine phosphatase receptor-type N
T4 sequence: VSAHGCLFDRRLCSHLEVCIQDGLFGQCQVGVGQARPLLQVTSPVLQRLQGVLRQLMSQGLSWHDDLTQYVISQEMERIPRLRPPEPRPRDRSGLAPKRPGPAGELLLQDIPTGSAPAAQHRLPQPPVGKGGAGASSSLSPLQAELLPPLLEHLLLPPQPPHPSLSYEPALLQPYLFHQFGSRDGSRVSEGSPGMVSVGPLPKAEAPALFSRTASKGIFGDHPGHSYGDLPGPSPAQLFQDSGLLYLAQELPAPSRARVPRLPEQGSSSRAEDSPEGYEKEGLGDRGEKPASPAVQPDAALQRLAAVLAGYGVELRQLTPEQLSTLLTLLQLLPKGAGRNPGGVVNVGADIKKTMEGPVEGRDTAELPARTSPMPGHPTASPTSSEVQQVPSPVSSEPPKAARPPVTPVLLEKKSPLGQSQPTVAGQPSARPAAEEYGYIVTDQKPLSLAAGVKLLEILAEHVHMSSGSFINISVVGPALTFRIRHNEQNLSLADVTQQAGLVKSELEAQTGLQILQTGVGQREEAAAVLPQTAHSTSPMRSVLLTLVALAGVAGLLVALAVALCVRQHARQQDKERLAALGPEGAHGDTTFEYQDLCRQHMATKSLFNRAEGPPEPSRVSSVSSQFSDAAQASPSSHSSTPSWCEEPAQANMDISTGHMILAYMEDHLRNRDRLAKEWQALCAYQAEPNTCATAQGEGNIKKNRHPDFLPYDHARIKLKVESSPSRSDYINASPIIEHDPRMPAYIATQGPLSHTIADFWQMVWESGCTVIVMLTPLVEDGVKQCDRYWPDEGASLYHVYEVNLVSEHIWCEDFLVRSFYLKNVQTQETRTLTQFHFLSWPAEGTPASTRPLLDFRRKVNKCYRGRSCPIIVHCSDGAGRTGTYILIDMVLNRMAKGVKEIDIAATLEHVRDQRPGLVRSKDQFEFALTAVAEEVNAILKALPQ
Method: as §1

[3] = biological target: T5, IL15-RA expressed on cells (human, UniProt Q13261 31-267); assay: as above
T5 construct: Clone of the Origene human cDNA library; also called Interleukin 15 receptor alpha
Method: as §1

MAG expressed on cells [4] = biological target: T1, MAG expressed on cells; assay: flow cytometry, transfected 293T cells, 50 µg/ml
BR3 expressed on cells = biological target: T6, BR3 expressed on cells (human, UniProt Q96RJ3 1-184); assay: flow cytometry, transfected 293T cells, 2 µg/ml
T6 construct: Clone of the Origene human cDNA library
T6 sequence: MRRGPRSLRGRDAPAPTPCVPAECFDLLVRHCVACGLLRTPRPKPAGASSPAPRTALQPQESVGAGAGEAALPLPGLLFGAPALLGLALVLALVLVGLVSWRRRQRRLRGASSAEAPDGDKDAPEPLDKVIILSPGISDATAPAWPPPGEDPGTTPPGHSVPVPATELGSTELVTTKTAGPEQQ

[5] = biological target: T7, IL-2Ra expressed on cells (human, UniProt P01589 22-272); assay: flow cytometry, transfected 293T cells, 2 µg/ml
T7 construct: Clone of the Origene human cDNA library; also called Interleukin 2 receptor alpha
T7 sequence: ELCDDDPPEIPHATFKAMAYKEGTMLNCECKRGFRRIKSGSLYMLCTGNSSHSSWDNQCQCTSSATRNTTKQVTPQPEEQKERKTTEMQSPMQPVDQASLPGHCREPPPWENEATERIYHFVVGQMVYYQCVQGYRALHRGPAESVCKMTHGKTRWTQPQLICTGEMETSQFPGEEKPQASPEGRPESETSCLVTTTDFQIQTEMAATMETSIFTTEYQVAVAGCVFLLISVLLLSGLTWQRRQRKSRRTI

PSS8 expressed on cells = biological target: T8, PSS8 expressed on cells (human, UniProt Q16651 30-343); assay: flow cytometry, transfected 293T cells, 2 µg/ml
T8 construct: Clone of the Origene human cDNA library; also called Protease serine 8; prostasin

[6] = biological target: T2, LRRTM4 expressed on cells; assay: flow cytometry, transfected 293T cells

T2 sequence (Q86VH4 31-590 limits assumed): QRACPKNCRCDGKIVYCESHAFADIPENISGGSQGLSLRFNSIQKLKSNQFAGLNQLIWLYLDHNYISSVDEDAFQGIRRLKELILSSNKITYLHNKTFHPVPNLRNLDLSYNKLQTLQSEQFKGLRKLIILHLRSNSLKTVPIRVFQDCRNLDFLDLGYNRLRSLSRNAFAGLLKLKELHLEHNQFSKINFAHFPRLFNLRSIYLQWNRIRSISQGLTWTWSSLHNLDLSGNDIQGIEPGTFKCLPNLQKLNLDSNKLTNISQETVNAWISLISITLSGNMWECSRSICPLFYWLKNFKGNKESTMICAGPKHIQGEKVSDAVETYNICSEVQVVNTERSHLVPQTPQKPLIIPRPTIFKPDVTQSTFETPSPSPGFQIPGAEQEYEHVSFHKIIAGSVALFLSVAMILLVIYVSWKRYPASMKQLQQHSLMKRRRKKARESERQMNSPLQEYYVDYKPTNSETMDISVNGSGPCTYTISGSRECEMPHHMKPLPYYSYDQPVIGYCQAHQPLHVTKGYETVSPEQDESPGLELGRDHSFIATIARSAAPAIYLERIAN
T5 sequence (Q13261 31-267 limits assumed): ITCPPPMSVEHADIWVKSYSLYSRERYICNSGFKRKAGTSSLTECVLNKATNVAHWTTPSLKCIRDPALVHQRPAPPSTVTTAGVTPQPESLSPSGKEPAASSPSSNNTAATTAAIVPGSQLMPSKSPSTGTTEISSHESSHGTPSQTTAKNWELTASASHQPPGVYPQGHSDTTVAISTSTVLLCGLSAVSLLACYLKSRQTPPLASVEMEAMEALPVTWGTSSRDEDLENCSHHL
T8 sequence (Q16651 30-343 limits assumed): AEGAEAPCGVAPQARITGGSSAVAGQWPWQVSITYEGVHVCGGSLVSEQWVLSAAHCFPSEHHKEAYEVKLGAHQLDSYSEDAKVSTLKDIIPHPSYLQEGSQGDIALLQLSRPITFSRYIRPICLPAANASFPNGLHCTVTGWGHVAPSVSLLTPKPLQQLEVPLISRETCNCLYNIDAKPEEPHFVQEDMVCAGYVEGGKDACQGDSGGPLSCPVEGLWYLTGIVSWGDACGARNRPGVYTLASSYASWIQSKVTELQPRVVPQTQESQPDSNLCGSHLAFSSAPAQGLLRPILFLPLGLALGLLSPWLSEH
T3 sequence (Q8NA23 other isoform, or with tags, fused parts or gaps): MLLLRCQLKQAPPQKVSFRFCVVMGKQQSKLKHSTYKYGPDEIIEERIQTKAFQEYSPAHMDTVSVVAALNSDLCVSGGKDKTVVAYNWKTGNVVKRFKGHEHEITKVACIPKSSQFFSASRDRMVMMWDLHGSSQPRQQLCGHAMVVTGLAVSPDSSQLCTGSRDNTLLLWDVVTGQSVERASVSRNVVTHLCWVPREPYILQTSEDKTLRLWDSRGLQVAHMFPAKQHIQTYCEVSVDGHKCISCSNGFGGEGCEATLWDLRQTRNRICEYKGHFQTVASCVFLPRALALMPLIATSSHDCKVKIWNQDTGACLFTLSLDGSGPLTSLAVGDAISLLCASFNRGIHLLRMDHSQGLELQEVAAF

- binding result (MAG expressed on cells [1]): binds
- binding result [2]: binds
- binding result (WDR31 expressed on cells): binds
- binding result (PTPRN expressed on cells): binds
- binding result [3]: binds
B1: hPILRα-AP (other)
chain: QPSGSTGSGPSYLYGVTQPKHLSASMGGSVEIPFSFYYPWELATAPDVRISWRRGHFHRQSFYSTRPPSIHKDYVNRLFLNWTEGQKSGFLRISNLQKQDQSVYFCRVELDTRSSGRQQWQSIEGTKLSITQAVTTTTQRPSSMTTTWRLSSTTTTTGLRVTQGKRRSDSWHISLET
notes: Used as culture supernatant; also called human PILRα-AP; Alkaline phosphatase (AP)-tagged PILRα construct; not shown: C-terminal alkaline phosphatase (AP) tag

B2: mPILRα-Fc (Fc fusion)
chain: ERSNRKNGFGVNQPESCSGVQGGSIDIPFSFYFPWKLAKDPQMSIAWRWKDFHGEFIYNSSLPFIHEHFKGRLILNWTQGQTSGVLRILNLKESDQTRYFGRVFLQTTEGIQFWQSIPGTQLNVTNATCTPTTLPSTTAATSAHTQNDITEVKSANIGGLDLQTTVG
notes: also called mouse PILRα-Fc; WT mPILRα-Fc; not shown: Fc of mouse IgG2a (PILRα-mIgG2a, called PILRα-Fc)
- % cells in lower right quadrant (MAG expressed on cells [4]): 0.55%
- % cells in lower right quadrant (BR3 expressed on cells): 34.1%
- % cells in lower right quadrant [5]: 14.1%
- % cells in lower right quadrant (PSS8 expressed on cells): 0.024%

B3: mPILRαR133A-Fc (Fc fusion)
chain: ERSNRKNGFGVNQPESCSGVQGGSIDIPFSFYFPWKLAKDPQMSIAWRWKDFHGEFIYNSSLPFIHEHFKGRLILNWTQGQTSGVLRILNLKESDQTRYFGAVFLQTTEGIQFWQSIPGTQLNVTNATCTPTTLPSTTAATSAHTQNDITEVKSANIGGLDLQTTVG
notes: Arg mutant of mPILRα-Fc; also called mPILRα133A-Fc; variant mPILRα (R133A); not shown: Fc of mouse IgG2a (PILRα-mIgG2a, called PILRα-Fc)
- binding result [6]: no binding (tested: 50 µg/ml)
